In paper PMC3861474 (PLoS ONE, 2013):

How the values were obtained:
NAGK‑FL25‑C + PII-ST‑V = molecular target: T1, NAGK‑FL25‑C + PII-ST‑V (Synechococcus elongatus, UniProt P0A3F4); experiment: FRET dissociation of PII - NAGK complex, […] nm ratio; type: binding; conditions: 0.1 mM ATP, 20 mM MgCl2, pH 7.5, 100 nM proteins, 30 min; competitive with ATP; a ratio, not a concentration
T1 construct: gene glnB; same FRET complex as P6 (Cerulean on NAGK C-terminus, Strep-tag and Venus on PII C-terminus), E. coli; compound site on PII; with Acetylglutamate kinase

[1] = molecular target: N-acetyl-L-glutamate kinase (NAGK), His-tagged wild type (Synechococcus elongatus) (UniProt Q6V1L5)
[2] = molecular target: NAGK‑FL25‑C (NAGK fused by a flexible 25-residue linker to Cerulean) (Synechococcus elongatus) (UniProt Q6V1L5)
[3] = molecular target: N-acetyl-L-glutamate kinase (NAGK), His-tagged wild type (Synechococcus elongatus) (UniProt Q6V1L5); remark: listed apart in the source
[4] = molecular target: NAGK‑FL25‑C (NAGK fused by a flexible 25-residue linker to Cerulean) (Synechococcus elongatus) (UniProt Q6V1L5); experiment: FRET or BRET; association kinetics: FRET ratio (525 nm / 475 nm emission) every 8 s, excitation 433 nm; NAGK-FL25-C preincubated at 37 °C, then PII-Venus variant added; 100 nM proteins; 0.1 mM ATP; ratio not background-subtracted (0.54 is the zero baseline)
[5] = molecular target: NAGK‑FL25‑C (NAGK fused by a flexible 25-residue linker to Cerulean) (Synechococcus elongatus) (UniProt Q6V1L5); remark: listed apart in the source
[6] = molecular target: NAGK‑FL25‑C (NAGK fused by a flexible 25-residue linker to Cerulean) (Synechococcus elongatus) (UniProt Q6V1L5); experiment: FRET or BRET; FRET ratio of NAGK-FL25-C + PII-ST-V with ADP 0.25 to 8 mM and 0.1 mM ATP (ADP/ATP ratio about 80 for the maximal drop); background subtracted and normalised
[7] = molecular target: NAGK‑FL25‑C (NAGK fused by a flexible 25-residue linker to Cerulean) (Synechococcus elongatus) (UniProt Q6V1L5); experiment: FRET or BRET; FRET ratio of NAGK-FL25-C + PII-ST-V after addition of 2-OG (0.8 and 1.6 mM, the highest concentrations); 0.1 mM ATP; background subtracted and normalised

Chain of N-acetyl-L-glutamate kinase (NAGK), His-tagged wild type (Synechococcus elongatus) (Q6V1L5 whole entry, the tested form may be a part): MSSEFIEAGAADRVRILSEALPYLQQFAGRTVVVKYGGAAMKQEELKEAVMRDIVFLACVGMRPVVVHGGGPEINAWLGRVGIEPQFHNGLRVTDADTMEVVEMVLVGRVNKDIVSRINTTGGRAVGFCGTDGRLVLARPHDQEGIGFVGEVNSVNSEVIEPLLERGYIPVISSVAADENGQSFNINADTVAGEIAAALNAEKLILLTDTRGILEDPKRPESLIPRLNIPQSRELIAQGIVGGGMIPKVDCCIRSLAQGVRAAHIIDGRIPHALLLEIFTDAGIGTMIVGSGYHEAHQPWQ
Chain of NAGK‑FL25‑C (NAGK fused by a flexible 25-residue linker to Cerulean) (Synechococcus elongatus) (Q6V1L5 whole entry, the tested form may be a part): as above
T1 sequence (P0A3F4 whole entry): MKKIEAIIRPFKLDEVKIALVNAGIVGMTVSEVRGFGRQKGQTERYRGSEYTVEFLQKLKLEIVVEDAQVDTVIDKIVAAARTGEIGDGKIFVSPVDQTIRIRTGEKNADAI
T1 sequence (Q6V1L5 whole entry partner): as the sequence (Q6V1L5 whole entry, the tested form may be a part) above

| Molecule | IC50 (ADP/ATP ratio) (NAGK‑FL25‑C + PII-ST‑V) | Kcat of NAGK activity in the presence of PII (coupled NADH oxidation assay; NAGK-wt alone 38.8 s^-1) [1] [s⁻¹] | Kcat/Km of NAGK activity in the presence of PII (NAGK-wt alone 1.2E+04) [1] [M⁻¹ s⁻¹] | Kcat of NAGK activity in the presence of PII (NAGK-FL25-C alone 41.36 s^-1) [2] [s⁻¹] | Kcat/Km of NAGK activity in the presence of PII (NAGK-FL25-C alone 1.4E+04) [2] [M⁻¹ s⁻¹] | relief of NAGK from arginine inhibition by PII: fold increase of the IC50 of arginine in the enzyme assay [3] [times] | maximum FRET ratio (525 nm / 475 nm; zero baseline 0.54) [4] | partial relief of NAGK from arginine inhibition by PII: fold increase of the IC50 of arginine in the enzyme assay [5] [times] | Kcat of NAGK activity in the presence of PII (NAGK-wt alone 38.8 s^-1) [1] [s⁻¹] | FRET level above baseline at the maximal drop (ADP/ATP ratio of about 80) [6] [%] | steady state FRET level above background with 0.8 and 1.6 mM 2-OG [7] [%] |
| --- | --- | --- | --- | --- | --- | --- | --- | --- | --- | --- | --- |
| Nc1ncnc2c1ncn2[C@@H]1O[C@H](COP(=O)(O)OP(=O)(O)O)[C@@H](O)[C@H]1O [ADP] | ~ 10 ADP/ATP ratio | – | – | – | – | – | – | – | – | – | – |
| PII signal transduction protein, wild type (from UniProt P0A3F4 1-112) (natural protein) | – | 119 | 180000 | 128 | 240000 | 25 | – | – | – | – | – |
| PII-E85A‑ST‑V (PII E85A, Strep-tag as linker, Venus) (from UniProt P0A3F4 1-112) (natural protein) | – | – | – | – | – | – | 0.6 | – | – | – | – |
| PII-S49G‑ST‑V (PII S49G, Strep-tag as linker, Venus) (from UniProt P0A3F4 1-112) (natural protein) | – | – | 190000 | 99.6 | 250000 | – | 0.8 | 8.5 | 96.8 | – | – |
| PII-ST‑V (PII, Strep-tag as linker, Venus) (from UniProt P0A3F4 1-112) (natural protein) | – | – | 180000 | 134 | 210000 | – | 1.35 | – | 123 | 10 | 10 |
